Laboratory results: PMC3873549, “Plant Acyl-CoA:Lysophosphatidylcholine Acyltransferases (LPCATs) Have Different Specificities in Their Forward and Reverse Reactions” (The Journal of Biological Chemistry, 2013)

Substrate: CCCCCCCC/C=C\CCCCCCCC(=O)SCCNC(=O)CCNC(=O)[C@H](O)C(C)(C)COP(=O)(O)OP(=O)(O)OC[C@H]1O[C@@H](n2cnc3c(N)ncnc32)[C@H](O)[C@@H]1OP(=O)(O)O
Assay: cells, lysate or membranes
Assay type: cell-based, Arabidopsis thaliana
Settings: acyl acceptor sn-1-18:1-LPC, pH 7.2, 30 °C, labelled compound

B1: AtLPCAT1 (Arabidopsis thaliana) (protein)
chain: MDMSSMAGSIGVSVAVLRFLLCFVATIPVSFACRIVPSRLGKHLYAAASGAFLSYLSFGFSSNLHFLVPMTIGYASMAIYRPKCGIITFFLGFAYLIGCHVFYMSGDAWKEGGIDSTGALMVLTLKVISCSMNYNDGMLKEEGLREAQKKNRLIQMPSLIEYFGYCLCCGSHFAGPVYEMKDYLEWTEGKGIWDTTEKRKKPSPYGATIRAILQAAICMALYLYLVPQYPLTRFTEPVYQEWGFLRKFSYQYMAGFTARWKYYFIWSISEASIIISGLGFSGWTDDASPKPKWDRAKNVDILGVELAKSAVQIPLVWNIQVSTWLRHYVYERLVQNGKKAGFFQLLATQTVSAVWHGLYPGYMMFFVQSALMIAGSRVIYRWQQAISPKMAMLRNIMVFINFLYTVLVLNYSAVGFMVLSLHETLTAYGSVYYIGTIIPVGLILLSYVVPAKPSRPKPRKEE
B1 was tested, and the Km was 18 µM.
